# Measured values as given in publication PMC8032985.
# Key:
# Assay in all cases: MST; NT-647-NHS-labelled PP2A subunit at 20 nM as target, 12-point twofold dilution series of unlabelled ARPP as ligand; SEC buffer with 0.05% Tween-20; triplicate; single-site binding model
# [1] = target: PP2A scaffolding subunit PR65α, full length (UniProt P30153)
# [2] = target: PP2A regulatory subunit B56γ
# [3] = target: PP2A regulatory subunit B56α
# Sequence of PP2A regulatory subunit B56α (Q15172 whole entry): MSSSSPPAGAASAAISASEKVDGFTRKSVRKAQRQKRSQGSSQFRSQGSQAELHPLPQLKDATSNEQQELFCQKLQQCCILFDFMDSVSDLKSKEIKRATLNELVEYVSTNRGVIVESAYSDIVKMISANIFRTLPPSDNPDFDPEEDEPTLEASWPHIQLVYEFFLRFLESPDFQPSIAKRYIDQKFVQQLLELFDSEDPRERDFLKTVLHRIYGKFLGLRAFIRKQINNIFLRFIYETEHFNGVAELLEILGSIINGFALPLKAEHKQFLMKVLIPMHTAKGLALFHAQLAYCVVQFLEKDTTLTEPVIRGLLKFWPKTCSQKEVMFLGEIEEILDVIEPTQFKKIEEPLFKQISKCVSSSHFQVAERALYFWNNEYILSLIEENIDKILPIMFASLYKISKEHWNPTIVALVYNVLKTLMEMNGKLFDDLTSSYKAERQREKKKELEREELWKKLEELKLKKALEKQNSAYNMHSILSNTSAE
# Sequence of PP2A scaffolding subunit PR65α, full length (P30153 whole entry): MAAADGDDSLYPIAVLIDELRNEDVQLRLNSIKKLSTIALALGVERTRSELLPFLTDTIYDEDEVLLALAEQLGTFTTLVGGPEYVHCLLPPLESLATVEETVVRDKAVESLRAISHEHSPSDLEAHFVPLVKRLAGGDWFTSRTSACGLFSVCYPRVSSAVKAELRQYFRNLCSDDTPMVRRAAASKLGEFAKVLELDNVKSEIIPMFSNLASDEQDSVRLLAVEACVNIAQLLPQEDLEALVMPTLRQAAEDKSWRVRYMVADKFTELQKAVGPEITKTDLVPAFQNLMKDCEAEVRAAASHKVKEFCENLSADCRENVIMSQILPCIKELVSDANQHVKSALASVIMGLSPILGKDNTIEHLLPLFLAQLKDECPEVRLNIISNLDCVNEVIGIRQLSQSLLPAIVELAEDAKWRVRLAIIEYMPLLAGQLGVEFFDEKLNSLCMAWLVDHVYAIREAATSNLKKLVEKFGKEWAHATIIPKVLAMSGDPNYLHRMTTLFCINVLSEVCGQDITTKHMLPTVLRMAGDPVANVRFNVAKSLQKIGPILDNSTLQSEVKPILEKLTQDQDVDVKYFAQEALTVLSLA
# Sequence of PP2A regulatory subunit B56γ (Q13362 whole entry): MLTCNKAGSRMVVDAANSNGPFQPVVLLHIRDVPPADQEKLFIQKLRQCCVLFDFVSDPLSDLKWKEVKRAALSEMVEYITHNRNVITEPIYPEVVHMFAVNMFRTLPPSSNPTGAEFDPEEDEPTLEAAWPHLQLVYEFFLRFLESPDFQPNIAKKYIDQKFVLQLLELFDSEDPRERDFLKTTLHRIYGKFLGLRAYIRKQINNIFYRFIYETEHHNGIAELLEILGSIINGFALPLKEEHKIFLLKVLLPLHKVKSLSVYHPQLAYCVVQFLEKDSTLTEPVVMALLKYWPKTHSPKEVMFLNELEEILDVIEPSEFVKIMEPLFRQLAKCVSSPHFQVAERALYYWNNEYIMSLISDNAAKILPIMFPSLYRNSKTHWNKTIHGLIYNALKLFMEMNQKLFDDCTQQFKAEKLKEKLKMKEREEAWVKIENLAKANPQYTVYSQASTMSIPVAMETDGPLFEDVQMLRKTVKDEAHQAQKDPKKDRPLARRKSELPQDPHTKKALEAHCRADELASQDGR
Kd [1],Kd [2],Kd [3],Substance
1 µM,440 µM,,ARPP-16 S46E phosphomimicking mutant (natural protein)
,,80 µM,"ARPP-16 (splice variant of ARPP-19), wild type (natural protein; other documents disagree on this pair)"
,,110 µM,ARPP-16 S46E phosphomimicking mutant (natural protein; other documents disagree on this pair)
3.3 µM,200 µM,,ARPP-16 S88E phosphomimicking mutant (natural protein)
5.4 µM,710 µM,,"ARPP-16 (splice variant of ARPP-19), wild type (natural protein)"
,,130 µM,ARPP-16 S88E phosphomimicking mutant (natural protein; other documents disagree on this pair)
